According to US20170002055A1, “Novel peptides and combination of peptides for use in immunotherapy against ovarian cancer and other cancers” (immatics biotechnologies GmbH, priority 2015, published 2017):

Target: HLA-A*02:01 (Homo sapiens, UniProt P04439, D140Y/D185E/D98H/E176V/E277Q/G131W/G231S/I119V/I121R/I166T/I218V/L300P/L318F/N151K/N90K/P208A/P217A/Q86G/Q94H/R138H/R169H/T345S)
Assay: MHC binding assay (UV-ligand exchange, β2m ELISA, peptide exchange yield)
Conditions: MHC class I binding score; binding to HLA-A*02:01 ranged by peptide exchange yield (UV-ligand exchange, β2m ELISA)
Procedure, shortened: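 Binding is expressed as peptide exchange yield: stabilized MHC complexes were quantified by β2m ELISA, with a 450 nm TMB read-out on streptavidin-coated plates. Complexes came from UV-ligand exchange, where UV irradiation cleaves a photolabile peptide so the candidate peptide can load.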

| Substance | Peptide exchange |
| --- | --- |
| 214 (FLLDLDPLLL; listed as Homo sapiens) [compound 214] | “+++” (≧50 = +++) |
| 216 (NLWEDPYYL; listed as Homo sapiens) [compound 216] | “+++” (≧50 = +++) |
| 217 (ALIHPVSTV; listed as Homo sapiens) [compound 217] | “++” (≧20% = ++) |
| 218 (SALEELVNV; listed as Homo sapiens) [compound 218] | “++” (≧20% = ++) |
| 219 (KLSDIGITV; listed as Homo sapiens) [compound 219] | “+++” (≧50 = +++) |
| 220 (LLQKFVPEI; listed as Homo sapiens) [compound 220] | “++” (≧20% = ++) |
| 221 (ALYEEGLLL; listed as Homo sapiens) [compound 221] | “++” (≧20% = ++) |
| 222 (NLIENVQRL; listed as Homo sapiens) [compound 222] | “++” (≧20% = ++) |
| 223 (ALLENIALYL; listed as Homo sapiens) [compound 223] | “+++” (≧50 = +++) |
| 224 (TLIDAQWVL; listed as Homo sapiens) [compound 224] | “+++” (≧50 = +++) |
| 225 (SLLKVLPAL; listed as Homo sapiens) [compound 225] | “+++” (≧50 = +++) |
| 226 (MLYVVPIYL; listed as Homo sapiens) [compound 226] | “++” (≧20% = ++) |
| 227 (ALMNTLLYL; listed as Homo sapiens) [compound 227] | “++” (≧20% = ++) |
| 228 (AMQEYIAVV; listed as Homo sapiens) [compound 228] | “++” (≧20% = ++) |
| 229 (RLPGPLGTV; listed as Homo sapiens) [compound 229] | “++” (≧20% = ++) |
| 230 (ILVDWLVEV; listed as Homo sapiens) [compound 230] | “+” (≧10% = +) |

| Substance | Peptide exchange |
| --- | --- |
| 231 (FLSPQQPPLLL; listed as Homo sapiens) [compound 231] | “++” (≧20% = ++) |
| 232 (ALLEAQDVELYL; listed as Homo sapiens) [compound 232] | “++” (≧20% = ++) |
| 233 (VLSETLYEL; listed as Homo sapiens) [compound 233] | “++” (≧20% = ++) |
| 234 (ALMEDTGRQML; listed as Homo sapiens) [compound 234] | “++” (≧20% = ++) |
| 235 (YLNDLHEVLL; listed as Homo sapiens) [compound 235] | “++++” (≧75% = ++++) |
| 236 (GLLEAKVSL; listed as Homo sapiens) [compound 236] | “+++” (≧50 = +++) |
| 237 (ALLEASGTLLL; listed as Homo sapiens) [compound 237] | “++++” (≧75% = ++++) |
| 238 (YLISFQTHI; listed as Homo sapiens) [compound 238] | “+++” (≧50 = +++) |
| 239 (AAFAGKLLSV; listed as Homo sapiens) [compound 239] | “+++” (≧50 = +++) |
| 240 (ILLEQAFYL; listed as Homo sapiens) [compound 240] | “+++” (≧50 = +++) |
| 241 (SLVEVNPAYSV; listed as Homo sapiens) [compound 241] | “+++” (≧50 = +++) |
| 243 (LLLNELPSV; listed as Homo sapiens) [compound 243] | “+++” (≧50 = +++) |
| 244 (SLFGGTEITI; listed as Homo sapiens) [compound 244] | “+++” (≧50 = +++) |
| 245 (SMIDDLLGV; listed as Homo sapiens) [compound 245] | “+++” (≧50 = +++) |
| 246 (LLWEVVSQL; listed as Homo sapiens) [compound 246] | “+++” (≧50 = +++) |
| 248 (FLFPNQYVDV; listed as Homo sapiens) [compound 248] | “+++” (≧50 = +++) |
